Square brackets hold non-standard residues; d marks the D form. Ends that are not written are not given here. Hyp = O=C(O)[C@@H]1C[C@@H](O)CN1
How the values were obtained:
[1] = biological target: T1, ecdTDR mutant with all five N-terminal anchoring site-binding residues replaced by alanine (Arabidopsis thaliana, UniProt Q9FII5 30-642); assay: ITC
T1 chain: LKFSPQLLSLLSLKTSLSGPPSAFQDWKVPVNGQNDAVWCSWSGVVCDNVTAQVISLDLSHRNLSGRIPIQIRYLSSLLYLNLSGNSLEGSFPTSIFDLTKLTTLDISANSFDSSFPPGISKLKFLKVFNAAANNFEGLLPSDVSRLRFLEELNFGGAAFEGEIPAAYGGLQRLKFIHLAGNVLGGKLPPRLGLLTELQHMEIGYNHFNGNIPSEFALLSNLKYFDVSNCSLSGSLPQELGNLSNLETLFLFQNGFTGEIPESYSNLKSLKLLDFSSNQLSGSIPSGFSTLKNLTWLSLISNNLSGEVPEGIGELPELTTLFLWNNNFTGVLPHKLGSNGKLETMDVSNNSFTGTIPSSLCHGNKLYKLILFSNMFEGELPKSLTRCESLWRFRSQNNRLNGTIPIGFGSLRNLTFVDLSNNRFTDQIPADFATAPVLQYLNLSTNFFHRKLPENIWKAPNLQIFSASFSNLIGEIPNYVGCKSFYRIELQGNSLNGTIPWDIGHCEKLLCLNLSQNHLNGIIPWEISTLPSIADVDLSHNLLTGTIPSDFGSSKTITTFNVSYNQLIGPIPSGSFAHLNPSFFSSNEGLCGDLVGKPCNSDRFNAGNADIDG

[2] = biological target: T2, ecdTDR Y234 alanine mutant (Arabidopsis thaliana, UniProt Q9FII5 30-642, alanine substitution of Y234); assay: ITC
T2 sequence: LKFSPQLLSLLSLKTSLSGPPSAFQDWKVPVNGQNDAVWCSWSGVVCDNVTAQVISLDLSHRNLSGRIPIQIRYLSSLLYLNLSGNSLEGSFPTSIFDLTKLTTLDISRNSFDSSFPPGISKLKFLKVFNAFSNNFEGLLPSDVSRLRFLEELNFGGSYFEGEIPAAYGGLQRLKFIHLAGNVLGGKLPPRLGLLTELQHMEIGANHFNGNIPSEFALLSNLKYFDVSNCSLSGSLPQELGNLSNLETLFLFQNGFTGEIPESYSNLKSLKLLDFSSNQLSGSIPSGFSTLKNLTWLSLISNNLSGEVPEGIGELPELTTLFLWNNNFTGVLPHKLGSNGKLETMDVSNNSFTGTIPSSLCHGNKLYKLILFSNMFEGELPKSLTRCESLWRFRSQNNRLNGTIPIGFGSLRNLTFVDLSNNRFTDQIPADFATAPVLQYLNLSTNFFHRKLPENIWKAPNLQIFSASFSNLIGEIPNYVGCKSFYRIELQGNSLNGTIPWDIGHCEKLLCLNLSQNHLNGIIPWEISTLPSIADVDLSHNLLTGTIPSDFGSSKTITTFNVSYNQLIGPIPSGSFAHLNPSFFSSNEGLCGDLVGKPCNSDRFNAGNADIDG

B1: Tracheary Element Differentiation Inhibitory Factor (TDIF) peptide (peptide)
peptide: HEV[Hyp]SG[Hyp]NPISN
notes: TDIF, the 12-residue CLE peptide processed from CLE41 and CLE44 of A. thaliana; printed as HEV(Hyp)SG(Hyp)NPISN; numbers count on: the 12-residue peptide; CLE44 encodes the same peptide; also called wild type TDIF; wtTDIF; source: synthetic peptide (peptide 2.0)
B1 gave a Kd [1] of 3240 nM and a Kd [2] of 1650 nM.

— PMC5383425, “Differential CLE peptide perception by plant receptors implicated from structural and functional analyses of TDIF-TDR interactions” (PLoS ONE, 2017)
